Experimental data: article PMC11842843, “Structural basis for malate-driven, pore lipid-regulated activation of the Arabidopsis vacuolar anion channel ALMT9” (Nature Communications, 2025)

Biological target: the molecule itself
Assay: cryo-EM structure; purified AtALMT9-sfGFP-HA-H10 in LMNG; three datasets (LMNG + CHS; LMNG + CHS + 10 mM malate; LMNG + 10 mM malate); 20 mM HEPES pH 7.6, 150 mM NaCl, 1 mM TCEP; nine lipid-bound classes

B1: AtALMT9-superfolder GFP (sfGFP)-hemagglutinin (HA) tag-decahistidine (H10) tag (natural protein, Arabidopsis thaliana, UniProt Q9LS46 1-598, looked up)
chain: MAAKQGSFRHGILEKRERLLSNNGFSDFRFTDIESNDLLENENCGRRTRLCCCCSCGNLSEKISGVYDDAKDVARKAWEMGVSDPRKIVFSAKIGLALTIVALLIFYQEPNPDLSRYSVWAILTVVVVFEFTIGATLSKGFNRALGTLSAGGLALGMAELSTLFGDWEEIFCTLSIFCIGFLATFMKLYPSMKAYEYGFRVFLLTYCYILISGFRTGQFIEVAISRFLLIALGAGVSLGVNMFIYPIWAGEDLHNLVVKNFMNVATSLEGCVNGYLRCLEYERIPSKILTYQASEDPVYKGYRSAVESTSQEESLMSFAIWEPPHGPYKSFNYPWKNYVKLSGALKHCAFTVMALHGCILSEIQAPEERRQVFRQELQRVGVEGAKLLRELGEKVKKMEKLGPVDLLFEVHLAAEELQHKIDKKSYLLVNSECWEIGNRATKESEPQELLSLEDSDPPENHAPPIYAFKSLSEAVLEIPPSWGEKNHREALNHRPTFSKQVSWPARLVLPPHLETTNGASPLVETTKTYESASALSLATFASLLIEFVARLQNVVDAFKELSQKANFKEPEIVTTGTDVEFSGERVGLGQKIRRCFGM
notes: cloned into modified pACEBac2-sfGFP-HA-H10; No tag cleavage is described; The final models lack the flexible N-terminus, the C-terminus and two long loops (between H1 and H2, and between H5 and H6); also called ALMT9 from Arabidopsis thaliana; source: Sf9 cells (baculovirus), purified (TALON resin, Superdex 200 increase) in LMNG with or without CHS
stoichiometry N: 2
